# Measurements: patent US20050222402A1, “Dna encoding rat bombesin receptor subtype-3 (brs-3) and uses thereof” (priority 2001, published 2005)
# Residue numbers refer to the chain shown, from its start. No end group written: not given here.
# What was measured:
# RBB3-E3 = target: T1, RBB3-E3 (Rattus norvegicus, UniProt Q8K418, A302V/D306A/E299Q/E303D/P308H/S300T/V307M/V310I/V311F/Y298S); assay: Radioligand binding assay with 125I-dYB; parameters: species or system rat/human; conditions: competition with [125I]dYB
# T1 construct: expressed in transfected cells; host or cells: 293EBNA cells, pE3 expression vector
# T1 sequence (Q8K418 1-399 Y298S/E299Q/S300T/A302V/E303D/D306A/V307M/P308H/V310I/V311F): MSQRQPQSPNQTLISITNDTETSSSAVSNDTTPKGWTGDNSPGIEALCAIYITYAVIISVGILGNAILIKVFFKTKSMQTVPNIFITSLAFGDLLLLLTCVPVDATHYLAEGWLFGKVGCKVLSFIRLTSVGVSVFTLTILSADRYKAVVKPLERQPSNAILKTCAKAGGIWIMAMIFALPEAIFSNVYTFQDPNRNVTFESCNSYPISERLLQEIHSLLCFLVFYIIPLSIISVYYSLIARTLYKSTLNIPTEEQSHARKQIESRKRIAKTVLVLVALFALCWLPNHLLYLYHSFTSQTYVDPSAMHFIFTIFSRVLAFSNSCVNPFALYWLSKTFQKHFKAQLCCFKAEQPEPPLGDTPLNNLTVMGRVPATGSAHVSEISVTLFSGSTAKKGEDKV
# Protocol: After removal of cell nuclei by a low speed centrifugation (1000×g) step, the cell membrane proteins were collected by centrifugation at 35,000×g for 20 minutes. The membrane protein concentration was determined by the Bradford method using BSA as standard.
# After a 2 hr incubation at room temperature, the binding reaction was terminated by filtering through a GF/c filter-mate and washing the filter with binding buffer using Packard 96-well Topcount Harvester. The amount of radioligand bound to the receptor was determined by measurement of the radioactivity on the filter through liquid scintillation counting. The non-specific binding was defined as the binding in the presence of 1 uM unlabeled dYB.
# rat BRS-3 [1] = target: T2, rat BRS-3 (Rattus norvegicus, UniProt Q8K418); assay: Calcium mobilization assay (FLIPR), transfected 293EBNA cells; type: cell-based
# T2 construct: utilized to PCR amplify full-length rat BRS-3 cDNA; expressed in transfected cells; host or cells: 293EBNA cells, pE3 expression vector
# T2 sequence (Q8K418 1-399): T1 sequence (Q8K418 1-399 Y298S/E299Q/S300T/A302V/E303D/D306A/V307M/P308H/V310I/V311F) with S298Y, Q299E, T300S, V302A, D303E, A306D, M307V, H308P, I310V, F311V
# Protocol: (§1) Wild type and mutant BRS-3 constructs were transfected by using lipofectamine reagents (Life Technologies, Rockville, Md.) into 293EBNA cells (Invitrogen, Carlsbad, Calif.) which support episomal replication of plasmid containing Epstein Bar virus OriP segment. Stable cell lines were obtained by selection with 250 ug/ml hygromycin. The cells were maintained as monolayers in Dulbecco's modified Eagle's medium (Life Technologies, Rockville, Md.) supplemented with 10% fetal bovine serum and incubated at 37° C. in a humidified 5% CO2 incubator.
# The functional activity of rat BRS-3 was also studied by measuring the agonist-induced calcium mobilization response using a Fluorescence Imaging Plate Reader (Molecular Devices, Sunnyvale, Calif.). Transfected 293EBNA cells were plated onto poly-D-lysine coated 96-well plates with black wall and clear bottom (Becton Dickinson, Franklin Lakes, N.J.). After 16-48 hr culture, the cells were loaded with 4 uM Fluo-3-AM fluorescent calcium-indicator dye (Molecular Probes, Eugene, OR) in assay buffer (Hank's balanced salts solution, 10 mM HEPES, pH7.4, 0.1% bovine serum albumin, 2.5 mM probenecid).
# The changes in intracellular calcium concentration, as indicated by Fluo-3 fluorescence, were immediately measured by FLIPR. Maximal changes in fluorescence over base line were used to determine agonist response.
# The EC50 values were mean±S.E. calculated from dose-response curves of 3-5 repeated experiments using FLIPR assays.
# rat BRS-3 [2] = target: T2, rat BRS-3; assay: Phosphatidylinositol hydrolysis functional assay; type: cell-based; conditions: peptide at 10 uM, transfected 293EBNA cells
# Protocol: as §1
# The functional properties of rat BRS-3 were characterized in transfected 293EBNA cells. The transfected 293EBNA cells were plated onto poly-D-lysine coated 12-well plates and incubated in the medium containing 2 uCi/ml [^3H]myo-inositol. The cells were labeled for 48 hrs, and subsequently incubated for 30 minutes in Hank's balanced salt solution containing 10 mM HEPES, 0.1% BSA and 10 mM LiCl.
# Since a natural agonist of BRS-3 has not been found, members of the bombesin-like peptide family, including GRP, NMB, bombesin and dYB, were used to stimulate the transfected cells described above, in the same buffer, for 1 hr at 37° C. The reaction was stopped by removal of medium and addition of 10 mM formic acid. The inositol monophosphate fraction was then isolated by anion chromatography as described (Berridge et al. Biochem. J. 212: 473-482 (1983), which is hereby incorporated by reference).
# [3] = target: rat bombesin receptor subtype-3 (rat) (UniProt Q8K418); assay: summary statement in the description; assay not named
# RB3-IF (rat) = RB3-IF (rat) (UniProt Q8K418); assay: cell-based or functional assay
# RBB3-E3 (rat; human) = RBB3-E3 (rat; human) (UniProt Q8K418); assay: cell-based or functional assay
# RB3-SQT (rat) = RB3-SQT (rat) (UniProt Q8K418); assay: cell-based or functional assay
# RB3-AMH (rat) = RB3-AMH (rat) (UniProt Q8K418); assay: cell-based or functional assay
# [4] = target: human bombesin receptor subtype-3 (human) (UniProt P32247); assay: cell-based or functional assay
# Chain of human bombesin receptor subtype-3 (human) (P32247 whole entry): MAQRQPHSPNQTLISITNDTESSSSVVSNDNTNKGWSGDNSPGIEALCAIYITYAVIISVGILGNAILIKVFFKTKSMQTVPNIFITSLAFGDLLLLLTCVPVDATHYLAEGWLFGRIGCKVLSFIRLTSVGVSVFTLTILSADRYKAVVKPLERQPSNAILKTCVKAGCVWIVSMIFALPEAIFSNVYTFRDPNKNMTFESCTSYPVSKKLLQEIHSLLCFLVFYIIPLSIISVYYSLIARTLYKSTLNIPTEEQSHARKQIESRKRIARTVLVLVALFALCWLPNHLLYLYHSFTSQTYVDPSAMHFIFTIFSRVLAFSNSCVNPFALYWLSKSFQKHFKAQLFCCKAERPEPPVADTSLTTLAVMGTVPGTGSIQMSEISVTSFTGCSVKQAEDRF
# [5] = target: rat bombesin receptor subtype-3 (rat) (UniProt Q8K418); assay: cell-based or functional assay
# RB3-VD (rat) = RB3-VD (rat) (UniProt Q8K418); assay: cell-based or functional assay
substance,measurement,setting,value
phyllolitorin,binding affinity,RBB3-E3,uM low affinities
"gastrin-releasing peptide (VPLPAGGGTVLTKMYPRGNHWAVGHLM; ends and bridges not checked; UniProt P07492 24-50, looked up) [GRP, bombesin-like peptide found in mammals]",intracellular calcium response,rat BRS-3 [1]; concentrations below 1.0 uM,none of the four peptides could stimulate a significant calcium response
same,intracellular calcium response,rat BRS-3 [1]; peptide at 10 uM,transient increase in intracellular calcium concentration
same,binding affinity,RBB3-E3,uM low affinities
same,stimulation of phosphatidylinositol (PI) hydrolysis (inositol monophosphate production),rat BRS-3 [2],significant increase
neuromedin B [NMB],intracellular calcium response,rat BRS-3 [1]; concentrations below 1.0 uM,none of the four peptides could stimulate a significant calcium response
same,intracellular calcium response,rat BRS-3 [1]; peptide at 10 uM,transient increase in intracellular calcium concentration
same,binding affinity,RBB3-E3,uM low affinities
same,stimulation of phosphatidylinositol (PI) hydrolysis (inositol monophosphate production),rat BRS-3 [2],significant increase
[D-Tyr6-betaAla11-Phe13-Nle14] bombesin (6-14) (peptide),fold lower affinity than human BRS-3,[3],1000 fold
same,"EC50, calcium mobilization (FLIPR)",RB3-IF (rat),1.3 µM
same,"EC50, calcium mobilization (FLIPR)",RBB3-E3 (rat; human),0.0028 µM
same,"EC50, calcium mobilization (FLIPR)",RB3-SQT (rat),0.39 µM
same,"fold improvement of dYB potency against rat BRS-3, calcium mobilization",RB3-SQT (rat),5 fold
same,"EC50, calcium mobilization (FLIPR)",RB3-AMH (rat),0.37 µM
same,"fold improvement of dYB potency against rat BRS-3, calcium mobilization",RB3-AMH (rat),6 fold
same,"EC50, calcium mobilization (FLIPR)",[4],0.0012 µM
same,"EC50, calcium mobilization (FLIPR)",[5],2.2 µM
same,fold difference in dYB potency between human and rodent BRS-3,[5],1000 fold
same,"phosphatidylinositol (PI) hydrolysis, inositol monophosphate production, peptide at 10 uM",[5],9 fold
same,"EC50, calcium mobilization (FLIPR)",RB3-VD (rat),0.93 µM
